{"source": "patent US20030207263A1", "about": "“Method of screening therapeutic agents” (priority 1998, published 2003)", "key": {"[1]": {"test_system": "CAGA-reporter cells (i.e F89 or 1613)", "experiment": "Toxic-compound control wells of the automated high throughput transcriptional screen", "assay_type": "cell-based, human", "details": "500 μM CPO in the presence of TGFβ"}, "[2]": {"test_system": "renilla luciferase driven by the RSV LTR, clone 1613", "experiment": "Renilla luciferase specificity/toxicity control (pRc/Renilla), clone 1613", "details": "for relative renilla luciferase activities (fold induction): value 1 = absence of TGFβ", "from_the_text": "(§1) The expression of this transgene should not be regulated by TGFβ or activin, i.e. it should not contain CAGA sequences in its regulatory regions. For instance, the renilla-luciferase gene can be transcribed from the RSV (Rous Sarcoma Virus) promoter or SV (Simian Virus 40) promoter. […] This means that an agent acting specifically through CAGA boxes-mediated transcription will have an effect on the firefly luciferase activity but not on the renilla luciferase activity."}, "[3]": {"test_system": "human PAI-1 promoter (PAI-1-Luc, clone 1613)", "experiment": "Human PAI-1-Luc firefly luciferase reporter, stable clone 1613", "details": "for relative firefly luciferase activities (fold induction): value 1 = absence of TGFβ", "procedure": "(§2) Thus, the renilla luciferase activity can be used as an internal toxicity control.\n(§3) At day 1, 40 (96 well-) microplates are seeded, using a multidrop apparatus, with CAGA-reporter cells (i.e F89 or 1613) at a concentration of 35000 cells per well in 200 μl of serum-containing medium.\n(§4) 8 to 24 hours later (Day 2), microplates containing the chemical compounds to be tested, diluted in 100% DMSO, are placed in a carousel and the cell-incubation procedure is launched. The computer system coordinates then the actions of different peripheric equipments in order to incubate the cells in the presence of TGFβ with the coumpounds to be tested.\n(§5) Cells and compounds microplates are moved through the robotic line to the adequate peripheries by the axial rotatable arm. Cells are washed and incubated in a serum-free medium. The pippetage station realizes different operations including preliminary dilutions in order to incubate the cells with TGFβ and the chemical compounds to be tested. The final concentration of TGFβ (rhTGFβ-1 from R & D) used in the test is 1 ng/mL and the compounds are tested at a final concentration of 10 μl in a final concentration of DMSO of 1%. Cells are incubated with the compounds to be tested 15-30 mn prior the addition of TGFβ. The final volume of the test reaction is 150 μl. Wells A1 through H10 are the test wells and contain cells incubated with the chemical agents to be tested in the presence of TGFβ. Each well contains only one singular chemical compound and allows to test its effect on CAGA-mediated transcription. Columns 11 and 12 are kept for controls. Column 11 contains 8 wells where cells are incubated in the presence of TGFβ without chemical compounds. Column 11 determines of the reference TGFβ-induced firefly luciferase value to which will be compared the values measured in the test wells to identify potential inhibitor or activator coumpounds. In wells A12 to D12, cells are grown in medium without TGFβ. The firefly luciferase value obtained with these points represents the ‘basal firefly luciferase activity’ and allows to control that the TGFβ induction is correct. In wells E12 to H12, cells are incubated in the presence of TGFβ with 500 μM CPO (Cyclopentenone, Sigma) which is a cell toxic compound. […] These points allows to control that the test is sensitive to toxic compounds.\n(§6) 12 to 18 hours later (day 3), the luciferase quantification procedure is launched. The following reactions are realized using reagents of the Dual Luciferase Assay Kit from Promega. Cells are washed and lysed with the addition of 10 μl of passive lysis buffer (Promega). After 15 to 30 mn of agitation, luciferase activities of the plates are read in a dual-injector luminometer (BMG lumistar)."}, "[4]": {"test_system": "renilla luciferase driven by the RSV LTR, clone F89", "experiment": "Renilla luciferase specificity/toxicity control (pRc/Renilla), clone F89", "details": "for relative renilla luciferase activities (fold induction): value 1 = absence of TGFβ", "from_the_text": "as §1"}, "[5]": {"test_system": "CAGA box reporter vector in HepG2 cells", "procedure": "(§7) FIG. 1C: HepG2 and Mv1Lu cells were transfected with p3TP-Lux or a vector containing nine or twelve copies of the CAGA box upstream of the minimal Adenovirus Major Late Promoter (MLP). Fold inductions by TGFβ are given for HepG2 cells.\n(§8) FIG. 3B: HepG2 cells were transfected with a (CAGA)12-MLP-Luc reporter construct and induced by BMP-7, activin or TGFβ (respectively 100 ng/mL, 20 ng/mL and 10 ng/mL).\n(§9) HepG2 and MDA-MB468 cells were transiently transfected, with the indicated constructs and the internal control pRL-TK vector, using the calcium phosphate co-precipitation method. When increasing amounts of expression vectors were transfected, total DNA was kept constant by addition of pCMV5. Cells were serum starved for 8 h before stimulation with 7 ng/mL of human recombinant TGFβ1 (R&D) and luciferases activities were quantified 14 h later using the Dual Luciferase Assay (Promega). For activin and BMP-7 (Creative Biomolecules) induction, respectively 20 ng/mL and 100 ng/mL were used. Values were normalized with the renilla luciferase activity expressed from pRL-TK. […] Luciferase values shown in figures are representative of transfection experiments done at least three times."}, "[6]": {"test_system": "CAGA box-mediated transcription ((CAGA)9MLP-Luc, clone F89)", "experiment": "TGFβ-responsive (CAGA)9MLP-Luc firefly luciferase reporter, stable clone F89", "details": "for relative firefly luciferase activities (fold induction): value 1 = absence of TGFβ", "procedure": "as §2, §3, §4, §5, §6"}, "[7]": {"test_system": "CAGA box reporter vector in HepG2 cells", "experiment": "Transient CAGA boxes-MLP-Luc reporter in HepG2 cells", "details": "(CAGA)12-MLP-Luc, TGFβ 10 ng/mL", "procedure": "as §7, §8, §9"}}}
{"molecule": "O=C1C=CCC1", "note": "[CPO, Cyclopentenone]", "values": [{"measurement": "firefly luciferase activity relative to TGFβ-only wells", "setting": "[1]", "result": "around 50%"}, {"measurement": "renilla luciferase activity relative to TGFβ-only wells", "setting": "[1]", "result": "around 50%"}]}
{"molecule": "TGFβ: human recombinant TGFβ1 (R&D), cytokine used to induce CAGA box-mediated transcription", "values": [{"measurement": "relative renilla luciferase activities (fold induction)", "setting": "[2]; TGFβ 0.2 ng/mL", "result": 0.8, "unit": "fold induction"}, {"measurement": "relative renilla luciferase activities (fold induction)", "setting": "[2]; TGFβ 1 ng/mL", "result": 1, "unit": "fold induction"}, {"measurement": "relative renilla luciferase activities (fold induction)", "setting": "[2]; TGFβ 5 ng/mL", "result": 1, "unit": "fold induction"}, {"measurement": "relative renilla luciferase activities (fold induction)", "setting": "[2]; TGFβ 10 ng/mL", "result": 1.3, "unit": "fold induction"}, {"measurement": "relative firefly luciferase activities (fold induction)", "setting": "[3]; TGFβ 0.2 ng/mL", "result": 8, "unit": "fold induction"}, {"measurement": "relative firefly luciferase activities (fold induction)", "setting": "[3]; TGFβ 1 ng/mL", "result": 26.2, "unit": "fold induction"}, {"measurement": "relative firefly luciferase activities (fold induction)", "setting": "[3]; TGFβ 5 ng/mL", "result": 43.5, "unit": "fold induction"}, {"measurement": "relative firefly luciferase activities (fold induction)", "setting": "[3]; TGFβ 10 ng/mL", "result": 50.1, "unit": "fold induction"}, {"measurement": "relative renilla luciferase activities (fold induction)", "setting": "[4]; TGFβ 0.2 ng/mL", "result": 1.1, "unit": "fold induction"}, {"measurement": "relative renilla luciferase activities (fold induction)", "setting": "[4]; TGFβ 0.5 ng/mL", "result": 1.1, "unit": "fold induction"}, {"measurement": "relative renilla luciferase activities (fold induction)", "setting": "[4]; TGFβ 1 ng/mL", "result": 1.2, "unit": "fold induction"}, {"measurement": "relative renilla luciferase activities (fold induction)", "setting": "[4]; TGFβ 5 ng/mL", "result": 1.5, "unit": "fold induction"}, {"measurement": "relative renilla luciferase activities (fold induction)", "setting": "[4]; TGFβ 10 ng/mL", "result": 1.8, "unit": "fold induction"}, {"measurement": "TGFβ-mediated fold induction", "setting": "[5]", "result": "Several hundred"}, {"measurement": "relative firefly luciferase activities (fold induction)", "setting": "[6]; TGFβ 0.2 ng/mL", "result": 6, "unit": "fold induction"}, {"measurement": "relative firefly luciferase activities (fold induction)", "setting": "[6]; TGFβ 0.5 ng/mL", "result": 31, "unit": "fold induction"}, {"measurement": "relative firefly luciferase activities (fold induction)", "setting": "[6]; TGFβ 1 ng/mL", "result": 109, "unit": "fold induction"}, {"measurement": "relative firefly luciferase activities (fold induction)", "setting": "[6]; TGFβ 5 ng/mL", "result": 461, "unit": "fold induction"}, {"measurement": "relative firefly luciferase activities (fold induction)", "setting": "[6]; TGFβ 10 ng/mL", "result": 737, "unit": "fold induction"}, {"measurement": "fold induction of CAGA boxes containing reporter", "setting": "[7]", "result": 200, "unit": "fold"}]}
{"molecule": "CCOc1cc(/C=C(\\C#N)C(N)=O)cc(CSc2ccccc2)c1O", "note": "[Compound A, α-cyano4-hydroxy-3-ethoxy-5-phenylthiomethyl cinnamamide]", "values": [{"measurement": "inhibitory effect on the renilla luciferase activities", "setting": "[2]; specificity/toxicity control", "result": "not on the renilla luciferase activities"}, {"measurement": "firefly luciferase activity (value 100 = absence of compound A, 1 ng/mL TGFβ)", "setting": "[3]; compound A 0.1 μM", "result": 105}, {"measurement": "firefly luciferase activity (value 100 = absence of compound A, 1 ng/mL TGFβ)", "setting": "[3]; compound A 1 μM", "result": 102}, {"measurement": "firefly luciferase activity (value 100 = absence of compound A, 1 ng/mL TGFβ)", "setting": "[3]; compound A 5 μM", "result": 65}, {"measurement": "firefly luciferase activity (value 100 = absence of compound A, 1 ng/mL TGFβ)", "setting": "[3]; compound A 10 μM", "result": 36}, {"measurement": "inhibitory effect on the renilla luciferase activities", "setting": "[4]; specificity/toxicity control", "result": "not on the renilla luciferase activities"}, {"measurement": "firefly luciferase activity (value 100 = absence of compound A, 1 ng/mL TGFβ)", "setting": "[6]; compound A 0.1 μM", "result": 98}, {"measurement": "firefly luciferase activity (value 100 = absence of compound A, 1 ng/mL TGFβ)", "setting": "[6]; compound A 1 μM", "result": 95}, {"measurement": "firefly luciferase activity (value 100 = absence of compound A, 1 ng/mL TGFβ)", "setting": "[6]; compound A 5 μM", "result": 86}, {"measurement": "firefly luciferase activity (value 100 = absence of compound A, 1 ng/mL TGFβ)", "setting": "[6]; compound A 10 μM", "result": 23}]}
